Results taken from publication PMC5897352, “Isolation and characterization of a multifunctional flavonoid glycosyltransferase from Ornithogalum caudatum with glycosidase activity” (Scientific Reports, 2018).

Legend:
[1] = substrate: O=[N+]([O-])c1ccccc1O[C@@H]1O[C@H](CO)[C@H](O)[C@H](O)[C@H]1O; assay: HPLC hydrolysis assay (o-nitrophenol release), Lineweaver-Burk; assay type: biochemical, Albuca bracteata; details: no UDP or UDP-sugar, phosphate buffer (pH 6.0 in methods, optimum pH 7), 37 °C
[2] = substrate: O=c1cc(-c2ccccc2)oc2cc(O)cc(O)c12; assay: HPLC glucosylation assay, Lineweaver-Burk; assay type: biochemical, Albuca bracteata; details: 1 mM UDP-Glc fixed, phosphate buffer pH 8.0, 50 °C, apparent Km

B1: OcUGT1 (Albuca bracteata) (protein)
chain: MGSEAHGALHILFFPLMAPGHMLPMVDMAKLFAARGLKPTIFTTPGNVRLIQPSIDNANGSGHQNPIQLFTVPFPSIDGIPDGCENLSSVTQELHVKFFVGLGNLREPFKDSLARLRPDCIVSDMFLPWTADEAAERGMPRLVFHGSNFFTQCAYRSIEHHKVLESLAPGEDTFVIPGLPHRVELRRSTMPDIQTFAPELMDIILQTREAELKSLGTVMNTFYELEPDYADHFCNVMGRRAWNIGPLSLCNKDVADKWRRGNEASITSEFCLNWLDSQEPSSVVYVCFGSLSDFTTAQLREIAAGLEASGRPFVWVVRNHSEEWIPEGLEERVGGKGLIIRGWAPQILILSHVAVGGFLTHCGWNSILEGVSAGLPFVTWPLFADQFYNERLIVDVLKIGVAVGSNEYANKPEERKIIEAAKIEATINELMGDGKDADERREKARALGELAQRAVEKGGSSYRDLDNLISELVEKRSAV
notes: full-length ORF of 1440 bp (479 residues by ORF length)
With B1 the Km [1] was 6.897 ± 1.995 mM and the Km [2] was 0.1506 ± 0.0139 mM.
